Measurements: PMC8602451

Tests used:
Assay in all cases: TurboID proximity labelling, streptavidin pull-down, LC-MS
Conditions in all cases: U2OS stable cell lines; 50 μM biotin for 2 h; read off a plot
PIAS2 = PIAS2 (UniProt O75928)
SIMC1 = biological target: SIMC1
EXOSC9 = biological target: EXOSC9
DAXX = biological target: DAXX
PIAS4 = PIAS4 (UniProt Q8N2W9)
TRIM33 = TRIM33 (UniProt Q9UPN9)
RBM22 = biological target: RBM22
PIAS3 = PIAS3 (UniProt Q9Y6X2)
HSPA8 = biological target: HSPA8
SNW1 = SNW1 (UniProt Q13573)
ZNF280A = biological target: ZNF280A
XAB2 = XAB2 (UniProt Q9HCS7)
FUS = biological target: FUS
GATAD2B = GATAD2B (UniProt Q8WXI9)
ZNF280B = ZNF280B (UniProt Q86YH2)
RAD54L2 = biological target: RAD54L2
TRIM24 = TRIM24 (UniProt O15164)
PIAS1 = PIAS1 (UniProt O75925)
IRF2BP2 = IRF2BP2 (UniProt Q7Z5L9)

UniProt Q8N2W9, sequence (Q8N2W9 whole entry): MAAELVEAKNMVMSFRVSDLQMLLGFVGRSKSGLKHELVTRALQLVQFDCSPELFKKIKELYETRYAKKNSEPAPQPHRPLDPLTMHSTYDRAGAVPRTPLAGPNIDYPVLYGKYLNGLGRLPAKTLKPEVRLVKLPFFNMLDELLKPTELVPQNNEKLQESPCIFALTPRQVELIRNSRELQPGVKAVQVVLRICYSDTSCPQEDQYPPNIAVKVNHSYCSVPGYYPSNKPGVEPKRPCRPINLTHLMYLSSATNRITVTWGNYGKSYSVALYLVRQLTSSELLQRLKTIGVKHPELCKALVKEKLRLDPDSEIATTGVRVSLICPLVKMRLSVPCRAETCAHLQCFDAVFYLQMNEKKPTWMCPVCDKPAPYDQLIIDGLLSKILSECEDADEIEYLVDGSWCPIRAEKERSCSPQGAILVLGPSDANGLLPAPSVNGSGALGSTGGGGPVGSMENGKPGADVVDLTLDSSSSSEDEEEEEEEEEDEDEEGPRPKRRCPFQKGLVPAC
UniProt O75925, sequence (O75925 whole entry): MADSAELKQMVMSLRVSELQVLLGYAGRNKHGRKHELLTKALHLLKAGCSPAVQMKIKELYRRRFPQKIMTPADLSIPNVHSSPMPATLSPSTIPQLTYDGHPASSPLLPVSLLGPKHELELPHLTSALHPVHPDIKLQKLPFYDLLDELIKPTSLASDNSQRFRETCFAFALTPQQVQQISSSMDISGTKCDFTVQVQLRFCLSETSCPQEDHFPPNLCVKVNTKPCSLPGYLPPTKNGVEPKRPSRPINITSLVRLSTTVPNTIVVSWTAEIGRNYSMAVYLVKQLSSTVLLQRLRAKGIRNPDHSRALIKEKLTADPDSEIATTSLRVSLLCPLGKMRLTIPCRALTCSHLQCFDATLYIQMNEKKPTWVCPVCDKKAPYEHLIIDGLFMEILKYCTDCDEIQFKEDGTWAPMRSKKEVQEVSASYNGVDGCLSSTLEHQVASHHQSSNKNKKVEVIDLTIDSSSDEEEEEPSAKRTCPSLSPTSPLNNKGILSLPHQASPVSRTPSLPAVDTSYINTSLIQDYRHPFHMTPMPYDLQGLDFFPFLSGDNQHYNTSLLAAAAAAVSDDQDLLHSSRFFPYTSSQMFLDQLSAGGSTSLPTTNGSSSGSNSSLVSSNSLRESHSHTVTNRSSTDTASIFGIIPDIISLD
UniProt Q13573, sequence (Q13573 whole entry): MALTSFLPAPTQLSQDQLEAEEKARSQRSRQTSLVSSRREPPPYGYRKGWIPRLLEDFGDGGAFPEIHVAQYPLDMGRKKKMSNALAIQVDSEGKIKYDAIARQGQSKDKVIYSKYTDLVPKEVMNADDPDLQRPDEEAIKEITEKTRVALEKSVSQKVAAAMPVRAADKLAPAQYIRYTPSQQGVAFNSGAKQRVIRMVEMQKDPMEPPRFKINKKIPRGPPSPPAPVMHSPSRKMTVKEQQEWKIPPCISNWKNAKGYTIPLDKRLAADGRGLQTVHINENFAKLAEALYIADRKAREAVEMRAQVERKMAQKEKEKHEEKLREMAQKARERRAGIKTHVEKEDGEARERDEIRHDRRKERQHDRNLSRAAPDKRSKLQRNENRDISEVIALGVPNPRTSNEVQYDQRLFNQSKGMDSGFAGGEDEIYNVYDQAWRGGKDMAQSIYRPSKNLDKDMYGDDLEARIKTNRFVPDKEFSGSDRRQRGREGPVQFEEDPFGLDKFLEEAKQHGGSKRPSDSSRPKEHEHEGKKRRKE
UniProt Q9HCS7, sequence (Q9HCS7 whole entry): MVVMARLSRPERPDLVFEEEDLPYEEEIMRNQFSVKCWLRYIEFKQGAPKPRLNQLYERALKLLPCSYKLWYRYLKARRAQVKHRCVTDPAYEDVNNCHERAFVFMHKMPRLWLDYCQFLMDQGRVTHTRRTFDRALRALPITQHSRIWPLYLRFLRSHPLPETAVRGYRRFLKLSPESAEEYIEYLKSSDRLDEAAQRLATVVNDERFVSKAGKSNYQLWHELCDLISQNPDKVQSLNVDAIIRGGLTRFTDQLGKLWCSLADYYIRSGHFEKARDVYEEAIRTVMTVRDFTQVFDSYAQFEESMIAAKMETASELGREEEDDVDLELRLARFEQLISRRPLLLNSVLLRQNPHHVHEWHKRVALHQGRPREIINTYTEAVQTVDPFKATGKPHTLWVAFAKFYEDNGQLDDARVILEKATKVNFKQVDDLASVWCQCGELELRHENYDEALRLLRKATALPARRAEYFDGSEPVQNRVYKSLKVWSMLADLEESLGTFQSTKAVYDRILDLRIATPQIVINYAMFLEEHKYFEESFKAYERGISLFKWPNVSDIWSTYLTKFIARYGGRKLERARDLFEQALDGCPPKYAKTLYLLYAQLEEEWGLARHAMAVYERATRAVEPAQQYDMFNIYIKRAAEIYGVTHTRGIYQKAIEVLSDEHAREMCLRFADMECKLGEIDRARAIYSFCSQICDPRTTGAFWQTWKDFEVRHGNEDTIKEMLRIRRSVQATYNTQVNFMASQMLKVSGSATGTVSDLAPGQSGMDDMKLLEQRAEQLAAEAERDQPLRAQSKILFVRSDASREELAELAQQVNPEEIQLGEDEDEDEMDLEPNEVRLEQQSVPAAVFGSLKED
UniProt Q9Y6X2, sequence (Q9Y6X2 whole entry): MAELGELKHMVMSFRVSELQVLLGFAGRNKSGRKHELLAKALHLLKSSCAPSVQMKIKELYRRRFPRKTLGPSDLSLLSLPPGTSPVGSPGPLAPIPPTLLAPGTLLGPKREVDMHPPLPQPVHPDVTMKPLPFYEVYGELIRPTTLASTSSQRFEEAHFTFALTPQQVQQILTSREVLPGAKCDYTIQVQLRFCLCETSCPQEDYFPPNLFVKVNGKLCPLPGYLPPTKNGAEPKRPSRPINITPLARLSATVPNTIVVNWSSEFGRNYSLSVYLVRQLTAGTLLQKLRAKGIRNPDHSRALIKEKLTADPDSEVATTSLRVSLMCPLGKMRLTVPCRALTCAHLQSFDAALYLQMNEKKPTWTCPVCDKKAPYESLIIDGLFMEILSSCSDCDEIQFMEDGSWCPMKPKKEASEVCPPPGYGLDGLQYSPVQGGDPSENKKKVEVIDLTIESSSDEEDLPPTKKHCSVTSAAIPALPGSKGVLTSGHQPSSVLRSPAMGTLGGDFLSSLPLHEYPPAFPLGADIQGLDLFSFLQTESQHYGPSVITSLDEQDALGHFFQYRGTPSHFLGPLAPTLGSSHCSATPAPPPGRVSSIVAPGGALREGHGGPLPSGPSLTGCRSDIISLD
UniProt Q86YH2, sequence (Q86YH2 whole entry): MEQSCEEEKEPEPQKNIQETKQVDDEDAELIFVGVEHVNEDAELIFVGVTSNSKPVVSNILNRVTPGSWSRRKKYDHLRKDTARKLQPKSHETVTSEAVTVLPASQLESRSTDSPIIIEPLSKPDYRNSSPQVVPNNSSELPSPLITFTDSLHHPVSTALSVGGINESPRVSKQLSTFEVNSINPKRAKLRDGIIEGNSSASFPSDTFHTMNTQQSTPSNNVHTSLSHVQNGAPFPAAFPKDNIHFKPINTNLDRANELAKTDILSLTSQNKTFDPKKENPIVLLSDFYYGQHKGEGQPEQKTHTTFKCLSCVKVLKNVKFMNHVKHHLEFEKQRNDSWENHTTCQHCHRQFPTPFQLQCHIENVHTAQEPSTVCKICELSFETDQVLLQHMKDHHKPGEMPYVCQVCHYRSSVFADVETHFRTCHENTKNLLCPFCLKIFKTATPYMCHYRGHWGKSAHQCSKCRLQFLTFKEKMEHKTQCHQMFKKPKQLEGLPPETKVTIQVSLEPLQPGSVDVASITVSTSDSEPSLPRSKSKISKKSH
UniProt Q9UPN9, sequence (Q9UPN9 whole entry): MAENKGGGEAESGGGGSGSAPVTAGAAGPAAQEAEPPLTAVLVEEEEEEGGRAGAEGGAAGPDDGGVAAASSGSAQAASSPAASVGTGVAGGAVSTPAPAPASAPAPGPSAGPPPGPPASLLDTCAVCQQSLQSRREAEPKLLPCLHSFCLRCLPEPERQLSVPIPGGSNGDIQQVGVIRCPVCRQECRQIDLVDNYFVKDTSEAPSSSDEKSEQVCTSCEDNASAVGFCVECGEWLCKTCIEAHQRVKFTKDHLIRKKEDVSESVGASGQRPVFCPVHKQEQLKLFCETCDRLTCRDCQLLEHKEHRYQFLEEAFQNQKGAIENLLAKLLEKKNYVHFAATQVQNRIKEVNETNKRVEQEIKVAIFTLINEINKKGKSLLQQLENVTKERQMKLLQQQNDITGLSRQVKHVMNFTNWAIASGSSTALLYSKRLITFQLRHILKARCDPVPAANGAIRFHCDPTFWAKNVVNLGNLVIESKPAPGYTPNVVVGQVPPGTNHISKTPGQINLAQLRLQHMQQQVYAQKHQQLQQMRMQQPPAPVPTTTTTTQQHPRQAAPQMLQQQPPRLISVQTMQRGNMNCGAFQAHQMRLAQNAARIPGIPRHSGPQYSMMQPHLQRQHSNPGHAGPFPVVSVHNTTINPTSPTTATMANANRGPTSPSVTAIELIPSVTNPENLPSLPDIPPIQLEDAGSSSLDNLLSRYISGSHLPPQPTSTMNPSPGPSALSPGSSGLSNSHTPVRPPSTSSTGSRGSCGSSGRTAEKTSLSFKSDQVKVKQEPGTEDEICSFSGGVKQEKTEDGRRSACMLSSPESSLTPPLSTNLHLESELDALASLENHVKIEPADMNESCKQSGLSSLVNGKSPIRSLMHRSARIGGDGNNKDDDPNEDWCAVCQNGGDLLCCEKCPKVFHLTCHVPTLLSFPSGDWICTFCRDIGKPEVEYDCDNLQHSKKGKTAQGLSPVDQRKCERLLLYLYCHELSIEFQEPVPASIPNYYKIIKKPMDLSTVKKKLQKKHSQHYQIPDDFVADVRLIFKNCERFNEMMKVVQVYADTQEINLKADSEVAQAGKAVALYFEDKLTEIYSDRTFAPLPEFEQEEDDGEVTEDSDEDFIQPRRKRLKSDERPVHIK

With “FLTbID-PML^WT (from UniProt P29590-12) 3MAS (K65; K160; K490 and SIM; replacement residues not printed)” the other: Log2 LFQ ratio (TurboID-PML WT / TurboID-PML 3MAS) (PIAS2) was 2.3 Log2 LFQ, the other: Log2 LFQ ratio (TurboID-PML WT / TurboID-PML 3MAS) (SIMC1) was 5.9 Log2 LFQ and the other: Log2 LFQ ratio (TurboID-PML WT / TurboID-PML 3MAS) (EXOSC9) was 1.8 Log2 LFQ. For the same substance, the other: Log2 LFQ ratio (TurboID-PML WT / TurboID-PML 3MAS) (DAXX) was 2.3 Log2 LFQ, the other: Log2 LFQ ratio (TurboID-PML WT / TurboID-PML 3MAS) (PIAS4) was 3.7 Log2 LFQ and the other: Log2 LFQ ratio (TurboID-PML WT / TurboID-PML 3MAS) (TRIM33) was 3.4 Log2 LFQ. For the same substance, the other: Log2 LFQ ratio (TurboID-PML WT / TurboID-PML 3MAS) (RBM22) was 3.5 Log2 LFQ, the other: Log2 LFQ ratio (TurboID-PML WT / TurboID-PML 3MAS) (PIAS3) was 3.6 Log2 LFQ and the other: Log2 LFQ ratio (TurboID-PML WT / TurboID-PML 3MAS) (HSPA8) was 0.55 Log2 LFQ. It also gave an other: Log2 LFQ ratio (TurboID-PML WT / TurboID-PML 3MAS) (SNW1) of 0.58 Log2 LFQ, an other: Log2 LFQ ratio (TurboID-PML WT / TurboID-PML 3MAS) (ZNF280A) of 2.9 Log2 LFQ and an other: Log2 LFQ ratio (TurboID-PML WT / TurboID-PML 3MAS) (XAB2) of 0.1 Log2 LFQ. For the same substance, the other: Log2 LFQ ratio (TurboID-PML WT / TurboID-PML 3MAS) (FUS) was 4.5 Log2 LFQ, the other: Log2 LFQ ratio (TurboID-PML WT / TurboID-PML 3MAS) (GATAD2B) was 1.4 Log2 LFQ and the other: Log2 LFQ ratio (TurboID-PML WT / TurboID-PML 3MAS) (ZNF280B) was 4.8 Log2 LFQ. For the same substance, the other: Log2 LFQ ratio (TurboID-PML WT / TurboID-PML 3MAS) (RAD54L2) was 5.4 Log2 LFQ, the other: Log2 LFQ ratio (TurboID-PML WT / TurboID-PML 3MAS) (TRIM24) was 3.4 Log2 LFQ and the other: Log2 LFQ ratio (TurboID-PML WT / TurboID-PML 3MAS) (PIAS1) was 3.5 Log2 LFQ. For the same substance, the other: Log2 LFQ ratio (TurboID-PML WT / TurboID-PML 3MAS) (IRF2BP2) was 0.15 Log2 LFQ.
